Measured values taken from patent US20070219354.

Target: T1, coumarin-CO-REVNFEVEFR
T1 chain: REVNFEVEFR

B1: BACE 1, soluble (transmembrane domain and cytoplasmic extension excluded) human protein produced in a baculovirus expression system (protein)
chain: TQHGIRLPLRSGLGGAPLGLRLPRETDEEPEEPGRRGSFVEMVDNLRGKSGQGYYVEMTVGSPPQTLNILVDTGSSNFAVGAAPHPFLHRYYQRQLSSTYRDLRKGVYVPYTQGKWEGELGTDLVSIPHGPNVTVRANIAAITESDKFFINGSNWEGILGLAYAEIARPDDSLEPFFDSLVKQTHVPNLFSLQLCGAGFPLNQSEVLASVGGSMIIGGIDHSLYTGSLWYTPIRREWYYEVIIVRVEINGQDLKMDCKEYNYDKSIVDSGTTNLRLPKKVFEAAVKSIKAASSTEKFPDGFWLGEQLVCWQAGTTPWNIFPVISLYLMGEVTNQSFRITILPQQYLRPVEDVATSQDDCYKFAISQSSTGTVMGAVIMEGFYVVFDRARKRIGFAVSACHVHDEFRTAAVEGPFVTLDMEDCGYNIPQTDESTLMT
B1 was tested, and the “substrate processed (end point HPLC assay, 2 nM enzyme, 1.0 µM substrate, 30 min)” value was “less than 10% of substrate is processed by BACE 1”.
